Reference: PMC10755698
Read-outs that look alike come from different tables or passages of the source.

Key:
Assay in all cases: native MS
[1] = target: T1, Lassa virus nucleoprotein NP (wild type) (Lassa virus, AV strain, UniProt Q9DQX7)
[2] = target: T1, Lassa virus nucleoprotein NP (wild type); remark: listed apart in the source
[3] = target: T1, Lassa virus nucleoprotein NP (wild type); remark: listed apart in the source

Row | Binder | binding result [1] | binding result [3] | also measured
1 | ACCAACACACCAACAACAACCUGUGCG (ssRNA) [27 nt RNA] | binds | – | –
2 | GCCUAGGAUCCACUGUGCGUGUUGU (ssRNA) [25 nt RNA] | binds | – | –
3 | CGGACACACAAAAAGAAA (ssRNA) [18 nt RNA] | – | – | binding result [2]: binds
4 | ACACAAAGACCC (ssRNA) [12 nt RNA] | – | binds | –
5 | UAGGAAUCU (ssRNA) [9 nt RNA] | – | binds | –
